Here are results for 4 molecules from US20210395392A1 (Bristol-Myers Squibb, published 2021).

In experiment [1] the target is T1, Human MerTK on hMerTK-expressing cells (human, UniProt Q12866 21-999).
T1 sequence: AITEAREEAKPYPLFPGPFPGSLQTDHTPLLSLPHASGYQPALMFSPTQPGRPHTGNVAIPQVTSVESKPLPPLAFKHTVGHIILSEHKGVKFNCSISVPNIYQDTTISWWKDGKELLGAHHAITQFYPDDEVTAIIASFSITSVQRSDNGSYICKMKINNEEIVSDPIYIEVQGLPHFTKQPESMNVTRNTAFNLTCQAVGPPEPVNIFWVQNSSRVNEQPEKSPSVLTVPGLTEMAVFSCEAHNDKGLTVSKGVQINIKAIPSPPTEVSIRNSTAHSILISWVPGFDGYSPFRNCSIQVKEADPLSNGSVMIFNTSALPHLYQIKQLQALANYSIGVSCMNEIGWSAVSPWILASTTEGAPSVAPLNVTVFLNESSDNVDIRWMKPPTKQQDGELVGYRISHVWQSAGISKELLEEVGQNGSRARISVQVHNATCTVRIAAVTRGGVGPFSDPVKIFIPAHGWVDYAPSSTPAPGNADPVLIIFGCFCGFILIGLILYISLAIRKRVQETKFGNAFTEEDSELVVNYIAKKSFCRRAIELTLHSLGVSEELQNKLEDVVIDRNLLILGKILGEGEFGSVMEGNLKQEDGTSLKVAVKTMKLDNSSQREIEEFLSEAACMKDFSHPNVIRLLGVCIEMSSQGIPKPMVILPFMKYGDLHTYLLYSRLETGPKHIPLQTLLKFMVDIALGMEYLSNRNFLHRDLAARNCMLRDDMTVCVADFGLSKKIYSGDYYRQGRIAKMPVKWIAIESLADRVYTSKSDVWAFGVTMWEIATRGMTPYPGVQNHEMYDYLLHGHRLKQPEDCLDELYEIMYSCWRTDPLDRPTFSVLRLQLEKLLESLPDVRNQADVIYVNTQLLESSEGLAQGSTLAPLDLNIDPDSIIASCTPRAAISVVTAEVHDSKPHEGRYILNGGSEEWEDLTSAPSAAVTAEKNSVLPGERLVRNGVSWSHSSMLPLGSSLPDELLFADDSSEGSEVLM
As to the kind of experiment: cell-based or functional assay.

The target of experiment [2] is T2, Recombinant soluble extracellular domain of human MerTK (human, UniProt Q12866 21-505).
T2 construct: SPR analyte; also called hMerTK
T2 sequence: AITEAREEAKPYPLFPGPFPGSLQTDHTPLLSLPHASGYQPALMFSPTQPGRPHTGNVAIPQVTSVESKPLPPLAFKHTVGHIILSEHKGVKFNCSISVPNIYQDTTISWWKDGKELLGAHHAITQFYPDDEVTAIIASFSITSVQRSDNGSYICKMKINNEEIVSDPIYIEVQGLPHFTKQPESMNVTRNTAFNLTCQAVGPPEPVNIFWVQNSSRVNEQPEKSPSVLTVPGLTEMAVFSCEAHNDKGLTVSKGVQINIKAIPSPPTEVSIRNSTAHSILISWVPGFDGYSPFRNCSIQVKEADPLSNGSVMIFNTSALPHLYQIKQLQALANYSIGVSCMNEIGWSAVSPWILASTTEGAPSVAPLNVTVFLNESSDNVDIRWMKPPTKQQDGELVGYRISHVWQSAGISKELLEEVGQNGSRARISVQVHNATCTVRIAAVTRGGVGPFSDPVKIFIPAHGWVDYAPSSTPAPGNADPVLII
The experiment is described as follows: SPR, mAb captured, soluble MerTK ECD as analyte, 37 C. How it is done: (§1) MerTK Abs were captured on the chip. Recombinant soluble forms of the extracellular domains of human, cynomolgus monkey, and mouse MerTK polypeptide were injected as analytes at multiple concentrations each. The resulting sensorgrams were double-referenced and fitted to a 1:1 Langmuir binding model with mass transport.

Experiment [3] has as its target T3, Recombinant soluble extracellular domain of cynomolgus monkey MerTK (cynomolgus monkey, UniProt Q12866 21-505 (human entry)).
T3 construct: SPR analyte; also called cMerTK; Cynomolgus MerTK
T3 chain: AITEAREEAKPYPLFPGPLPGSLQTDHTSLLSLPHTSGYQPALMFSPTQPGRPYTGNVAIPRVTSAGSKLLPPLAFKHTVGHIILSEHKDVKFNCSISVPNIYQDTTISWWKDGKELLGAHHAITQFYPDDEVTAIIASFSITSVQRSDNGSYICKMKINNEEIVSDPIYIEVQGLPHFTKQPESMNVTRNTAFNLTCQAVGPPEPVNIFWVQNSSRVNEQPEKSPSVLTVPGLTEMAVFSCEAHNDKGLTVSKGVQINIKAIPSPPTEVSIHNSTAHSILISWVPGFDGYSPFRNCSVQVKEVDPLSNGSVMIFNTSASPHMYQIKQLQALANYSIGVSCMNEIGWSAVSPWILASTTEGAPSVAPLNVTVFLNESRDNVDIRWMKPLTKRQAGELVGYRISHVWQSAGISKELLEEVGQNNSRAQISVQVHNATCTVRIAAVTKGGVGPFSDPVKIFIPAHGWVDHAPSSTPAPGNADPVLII
The description is as above. The procedure: as §1

Experiment [4] concerns the target T4, Recombinant soluble extracellular domain of mouse MerTK (mouse, UniProt Q60805 19-497).
T4 construct: SPR analyte; also called mMerTK
T4 sequence: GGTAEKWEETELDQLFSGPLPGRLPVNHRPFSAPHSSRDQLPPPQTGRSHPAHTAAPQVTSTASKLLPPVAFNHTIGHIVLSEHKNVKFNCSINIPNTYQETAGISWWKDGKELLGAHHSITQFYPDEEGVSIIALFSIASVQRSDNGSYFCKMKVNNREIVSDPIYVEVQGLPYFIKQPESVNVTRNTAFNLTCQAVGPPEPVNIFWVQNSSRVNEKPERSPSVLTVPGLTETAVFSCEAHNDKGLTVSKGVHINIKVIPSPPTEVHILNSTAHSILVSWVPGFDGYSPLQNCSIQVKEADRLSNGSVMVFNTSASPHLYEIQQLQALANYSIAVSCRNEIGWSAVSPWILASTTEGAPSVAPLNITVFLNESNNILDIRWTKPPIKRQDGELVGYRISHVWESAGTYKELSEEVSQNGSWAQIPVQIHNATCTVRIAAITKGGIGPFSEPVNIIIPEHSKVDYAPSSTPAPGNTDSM
Described as above. How it is done:
as §1

The target of experiment [5] is T5, Mouse MerTK on mMerTK-expressing cells (mouse, UniProt Q60805 19-994).
T5 sequence: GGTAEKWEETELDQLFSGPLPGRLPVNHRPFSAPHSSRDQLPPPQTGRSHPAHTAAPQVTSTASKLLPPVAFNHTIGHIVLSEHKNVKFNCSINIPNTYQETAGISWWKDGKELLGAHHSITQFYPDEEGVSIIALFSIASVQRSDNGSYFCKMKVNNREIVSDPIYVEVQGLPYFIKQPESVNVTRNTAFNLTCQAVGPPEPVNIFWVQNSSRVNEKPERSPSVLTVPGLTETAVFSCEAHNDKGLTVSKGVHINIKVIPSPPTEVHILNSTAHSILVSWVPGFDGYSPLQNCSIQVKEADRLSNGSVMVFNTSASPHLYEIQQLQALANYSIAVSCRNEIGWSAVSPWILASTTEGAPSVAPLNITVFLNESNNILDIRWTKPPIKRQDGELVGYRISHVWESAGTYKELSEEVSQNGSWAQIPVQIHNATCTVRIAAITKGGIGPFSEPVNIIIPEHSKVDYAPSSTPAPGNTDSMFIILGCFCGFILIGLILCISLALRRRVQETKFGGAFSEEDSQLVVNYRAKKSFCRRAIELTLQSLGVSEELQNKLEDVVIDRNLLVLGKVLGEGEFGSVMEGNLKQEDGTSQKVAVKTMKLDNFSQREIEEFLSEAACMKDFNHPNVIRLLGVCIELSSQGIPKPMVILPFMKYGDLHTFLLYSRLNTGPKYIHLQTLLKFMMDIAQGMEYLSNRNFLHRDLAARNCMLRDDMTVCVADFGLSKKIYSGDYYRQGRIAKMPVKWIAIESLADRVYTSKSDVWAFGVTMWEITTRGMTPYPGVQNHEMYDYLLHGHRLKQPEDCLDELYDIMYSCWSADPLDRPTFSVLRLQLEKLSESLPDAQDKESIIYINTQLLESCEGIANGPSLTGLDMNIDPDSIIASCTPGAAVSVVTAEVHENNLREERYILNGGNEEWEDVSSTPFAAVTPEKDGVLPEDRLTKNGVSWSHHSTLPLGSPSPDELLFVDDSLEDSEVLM
The experiment is described as follows: cell-based or functional assay.

For experiment [6], the target named is T2, Recombinant soluble extracellular …. The experiment is described as follows: SPR, soluble MerTK ECD; format for mouse mAbs not detailed. For orientation: Surface plasmon resonance follows binding to a sensor surface in real time, without labels.
Experiment [7] concerns the target T3, Recombinant soluble extracellular …. The description is as above.
The target of experiment [8] is T4, Recombinant soluble extracellular …. The experiment is described as above.

B1: Humanized MAb 2L105 (antibody, human IgG1, lambda, V domains shown)
VH: QVTLKESGPVLVKPTETLTLTCTVSGISLSSFAISWIRQPPGKALEWLAVIWTGGGTDYNSALKSRLTISKDTSKSQVVLTMTNMDPVDTATYYCASHWYLDVWGQGTTVTVSS
VL: QTVVTQEPSFSVSPGGTVTLTCRSSTGAVSTSNYANWVQQTPGQAPRGLIGGANSRAPGIPDRFSGSILGNKAALTITGAQADDESDYYCALWFSNHWVFGGGTKLTVLG
notes: Humanized variant of moMAb 2D9, Bin 2
Usually Kd stands for the concentration at which binding is half-saturated. What is called koff is a measure of how fast the partners let go of each other. As a reminder, the kon is a measure of how fast the partners come together. For the molecule B1, the “Signaling Assay, hMerTK with Gas6, pSTAT1 IC50 (nM)” value (“Signaling Assay, hMerTK with Gas6” for short) in experiment [1] was 1.37 nM. Moreover, in experiment [2], the Kd turned out to be 24.8 nM, the koff was 0.00146 s⁻¹, the kon was 58900 M⁻¹ s⁻¹ and the t1/2 turned out to be 7.9 min. Also, in experiment [3], the Kd worked out at 27 nM, the koff was 0.00151 s⁻¹, the kon worked out at 55900 M⁻¹ s⁻¹ and the t1/2 came to 7.7 min. In experiment [4], the Kd was found to be 13.7 nM, the dissociation rate constant (koff) came to 0.00123 s⁻¹, the kon came to 89500 M⁻¹ s⁻¹ and the t1/2 was 9.4 min.

B2: Humanized mAb 4M60 (antibody, human IgG1, kappa, V domains shown)
VH: QVQLVQSGSELKKPGASVKVSCKASGNTFTTYGMSWVRQAPGQGLEWMGWINNYSGVSTYADDFKGRFVFSLDTSVSTAYLQISSLKAEDTAVYYCARDYYGSGGWVFDYWGQGTTVTVSS
VL: DVVMTQSPLSLPVTLGQPASISCKSSQSLLDSEGKTYLNWLQQRPGQSPRRLMYLVSKLDSGVPDRFSGSGSGTDFTLKISRVEAEDVGVYYCWQGTHFPRTFGGGTKVEIKR
notes: Humanized variant of moMAb 4E9, Bin 2
Consider B2, for which, in experiment [1], the “Signaling Assay, hMerTK with Gas6” value came out at 8.88 nM. For the same molecule, in experiment [2], the Kd is 50.8 nM, the koff worked out at 0.00134 s⁻¹, the on-rate constant (kon) is 26400 M⁻¹ s⁻¹ and the t1/2 came out at 8.6 min. Besides, in experiment [3], the dissociation constant (Kd) is 42.5 nM, the koff was 0.00137 s⁻¹, the kon is 32200 M⁻¹ s⁻¹ and the t1/2 turned out to be 8.4 min. In experiment [4], the Kd amounted to 47.1 nM, the koff worked out at 0.00249 s⁻¹, the on-rate (kon) amounted to 52900 M⁻¹ s⁻¹ and the t1/2 came out at 4.6 min.

B3: MoMAb 2D9 (antibody, V domains shown)
VH: QVQLKESGPGLVAPSQSLSITCTVSGISLSSFAISWVRQPPGKGLEWLGVIWTGGGTDYNSALKSRLTISKDTSKNQVFLKMNSLQTDDTARYYCASHWYLDVWGTGTTVTVSS
VL: QAVVTQESALTTSPGETVTLTCRSSTGAVSTSNYANWVQEKPDHLFTGLIGGANSRAPGIPARFSGSLIGDKAALTITGAQTEDEAIYFCALWFSNHWVFGGGTKLTVL
notes: Mouse mAb; Bin 2
In the case of B3, in experiment [1], the “Inhibition of Efferocytosis IC50” value worked out at 0.528 nM; the “Signaling Assay, hMerTK with Gas6” value turned out to be 1.44 nM; the “Signaling Assay, hMerTK without Gas6, pSTAT1 IC50 (nM)” value is more than 100 nM. In addition, the “Signaling Assay, mMerTK with Gas6, pSTAT1 IC50 (nM)” value in experiment [5] is 2.07 nM. Moreover, in experiment [6], the koff is 0.00064 s⁻¹ and the t1/2 came to 18.2 min. In experiment [7], the Kd is 12 nM, the koff was 0.00064 s⁻¹, the association rate constant (kon) amounted to 53300 M⁻¹ s⁻¹ and the t1/2 came out at 18 min. Besides, in experiment [8], the Kd amounted to 3.2 nM, the dissociation rate constant (koff) came to 0.000403 s⁻¹, the on-rate (kon) turned out to be 126000 M⁻¹ s⁻¹ and the t1/2 came to 28.7 min.

B4: HuMAb 10K11 (antibody, human IgG1, kappa, V domains shown)
VH: QLQLQESGPGLVKPSETLSLTCAVSGYSISSDYSWGWIRQPPGKGLEWIGSIYHSGNTYFNPSLKSRVTISVDTSKNQFSLKLSSVTAADTAVYYCARDKSYYFGPGSMDVWGQGTTVTVSS
VL: AIQLTQSPSSLSASVGDRVTITCRASQGISSALAWYQQKPGKAPKLLIYDASSLESGVPSRFSGSGSGTDFTLTISSLQPEDFATYYCQQFKSYLTFGQGTRLEIKR
notes: Human anti-hMerTK mAb, Bin 1
On to B4, for which, in experiment [1], the “Inhibition of Efferocytosis IC50” value was found to be 0.169 nM; the “Signaling Assay, hMerTK with Gas6” value worked out at 1.13 nM; the “Signaling Assay, hMerTK without Gas6, pSTAT1 IC50 (nM)” value is more than 100 nM. In experiment [2], the Kd was determined as 9 nM, the off-rate (koff) came out at 0.00117 s⁻¹, the association rate constant (kon) was 132000 M⁻¹ s⁻¹ and the t1/2 turned out to be 9.9 min. In experiment [3], the Kd came out at 22.5 nM, the koff was determined as 0.00235 s⁻¹, the on-rate (kon) was found to be 108000 M⁻¹ s⁻¹ and the t1/2 worked out at 4.9 min.
